The results in this text go back to patent US20100210517A1 (RAPTOR PHARMACEUTICAL, published 2010).

As usually defined, the Kd is the free concentration of one partner at which half of the binding sites on the other are occupied at equilibrium, for simple one-to-one binding. High values mean lower affinity, low ones higher affinity.

Assay [1] addresses T1, LRP2 CR89 (human, UniProt P98164 1025-1102).
T1 construct: domain: CR89; also called YVWR; L2 CR89; not shown: N-terminal hexahistidine and S-peptide tags of pET30(+)a
Briefly: solid-phase assay on coated CR protein, single-site non-linear fit. Here is the method: Data were plotted and fitted by non-linear regression with the assumption of a single binding site (GraphPad Prism). Kd values with standard deviations were derived from the regression analysis.
(§1) Solid phase binding assays-Purified, refolded CR protein (1 μg) was bound to Nunc Maxisorp™ 96-well plates in TBS pH 8 supplemented with 5 mM CaCl₂ (TBSC) overnight at 4° C. Wells were washed with TBSC and then blocked with TBSC containing 2% bovine serum albumin (BSA). […] Control wells contained no added ligand. As an additional control, to determine whether the absence of calcium affected binding, 10 mM EGTA was included in the incubation medium for some samples. […] Excess primary antibody was removed and wells washed before incubation with the secondary antibody, HRP-conjugated goat anti rabbit IgG (Bio-Rad). After washing, TMB substrate solutions (Bio-Rad) were added to detect HRP. Color development was stopped with 1N HCl. Absorption at 450 nm was measured with a microplate spectrophotometer (Molecular Devices). Data were plotted and Kd values derived by non-linear regression with the assumption of single-site binding (GraphPad Prism).

For the next assay, the target named is T2, LRP2 CR34-36 (human, UniProt P98164 3841-3963).
T2 construct: domain: CR34-36; not shown: N-terminal hexahistidine and S-peptide tags of pET30(+)a
The assay is described as follows: solid-phase assay on coated CR protein, each ligand at 80 nM, blank-corrected absorbance.

A further assay addresses T3, MAT CR12 (human, UniProt Q9Y5Y6 452-524).
T3 construct: also called ST14 CR12; matriptase CR12
T3 sequence: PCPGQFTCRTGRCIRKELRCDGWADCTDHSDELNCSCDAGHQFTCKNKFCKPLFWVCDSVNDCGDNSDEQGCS
Described as above.

The target in assay [2] is T1, LRP2 CR89. Briefly: solid-phase assay; OD at the highest ligand concentration as percent of the highest OD of all ligands. Here is the method:
as §1
(§2) To test this idea, mutant LRP2 CR89 were prepared in which the native, non-canonical residues at these positions were sequentially substituted with the non-native, canonical residues. As defined above, the A, C, A′, C′ string for LRP2 CR89 is YVWR. Mutants included LRP2 CR89 Y1042W (WVWR), LRP2 CR89 V1047D (YDWR), LRP2 CR89 R1088D (YVWD), LRP2 CR89 V1047D R1088D (YDWD), LRP2 CR89 Y1042W V1047D R1088D (WDWD), LRP2 CR89 Y1042W V1047D (WDWR), LRP2 CR89 Y1042W R1088D (WVWD).

The target of the next assay is T4, LRP2 CR89 V1047D (human, UniProt P98164 1022-1105).
T4 construct: also called YDWR
T4 sequence: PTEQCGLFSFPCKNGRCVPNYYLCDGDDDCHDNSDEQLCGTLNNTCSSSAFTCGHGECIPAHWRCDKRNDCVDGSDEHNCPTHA
Described as above. The method, then:
as §1, §2

In a further assay the target is T5, LRP2 CR89 R1088D (human, UniProt P98164 1022-1105).
T5 construct: also called YVWD
The assay is described as above. Here is the method: as §1, §2

The target in the next assay is T6, LRP2 CR89 V1047D R1088D (human, UniProt P98164 1022-1105).
T6 construct: also called YDWD
T6 sequence: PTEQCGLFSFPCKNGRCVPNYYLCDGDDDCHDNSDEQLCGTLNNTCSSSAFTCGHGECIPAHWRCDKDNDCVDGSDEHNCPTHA
Described as above. The method, then:
as §1, §2

For assay [3], the target named is T7, LRP2 CR89 Y1042W V1047D R1088D (human, UniProt P98164 1022-1105).
T7 construct: also called WDWD
T7 chain: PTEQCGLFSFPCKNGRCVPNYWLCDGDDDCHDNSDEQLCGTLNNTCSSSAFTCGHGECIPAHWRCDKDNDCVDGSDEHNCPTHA
The description is as above. Here is the method: as §1, §2

The next assay has as its target T8, LRP2 CR89 Y1042W V1047D (human, UniProt P98164 1022-1105).
T8 construct: also called WDWR
T8 chain: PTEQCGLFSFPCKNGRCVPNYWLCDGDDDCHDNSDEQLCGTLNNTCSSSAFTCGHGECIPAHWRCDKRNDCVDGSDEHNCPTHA
The description is as above. Here is the method: as §1, §2

The target of another assay is T9, LRP2 CR89 Y1042W R1088D (human, UniProt P98164 1022-1105).
T9 construct: also called WVWD
T9 chain: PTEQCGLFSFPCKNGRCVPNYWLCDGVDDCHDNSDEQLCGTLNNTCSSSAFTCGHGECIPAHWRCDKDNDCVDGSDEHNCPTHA
The assay is described as above. The method, then:
as §1, §2

T1 sequence (P98164 1025-1102): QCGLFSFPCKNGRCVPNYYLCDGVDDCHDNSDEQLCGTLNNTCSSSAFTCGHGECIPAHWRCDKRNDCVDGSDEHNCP
T2 sequence (P98164 3841-3963): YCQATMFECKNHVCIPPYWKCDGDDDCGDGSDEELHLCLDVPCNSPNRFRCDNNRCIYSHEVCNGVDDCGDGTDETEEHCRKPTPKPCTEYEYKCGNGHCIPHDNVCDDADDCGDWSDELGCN

B1: MegaRAP1 d3 (ligand)
chain: LDRLRRVSHQGYTTEAKFEEPRVIDLWDLAQSANLTDKELEAFREELKYFKAKIEAHNHYQKQLEIAHEELRHAESVGDGERVSRSREKHALLEGRTKELGYTVKKHLQDLSGRISRAR
notes: V175L lies outside the d3 construct; also called RAPv2A d3; RAP v2 d3; not shown: N-terminal hexahistidine and S-peptide tags of pET30(+)a
Regarding B1, in the assay with LRP2 CR89 [1], the Kd amounted to 38 nM. The binding result in the assay with LRP2 CR34-36 and with MAT CR12 was “no binding (tested: 80 nM)” each time. Also, the “% max bind” value with LRP2 CR89 [2] was 100%; with LRP2 CR89 V1047D, 11%; with LRP2 CR89 R1088D, 55%; in the assay with LRP2 CR89 V1047D R1088D, 3%; in assay [3], 1%; with LRP2 CR89 Y1042W V1047D, 3%. The “% max bind” value with LRP2 CR89 Y1042W R1088D was found to be 4%.
